T1: IL1RAP on HEK-Blue IL1β / HEK-Blue IL33 reporter cells (UniProt Q9NPH3 21-570, limits assumed)
T1 sequence (looked up): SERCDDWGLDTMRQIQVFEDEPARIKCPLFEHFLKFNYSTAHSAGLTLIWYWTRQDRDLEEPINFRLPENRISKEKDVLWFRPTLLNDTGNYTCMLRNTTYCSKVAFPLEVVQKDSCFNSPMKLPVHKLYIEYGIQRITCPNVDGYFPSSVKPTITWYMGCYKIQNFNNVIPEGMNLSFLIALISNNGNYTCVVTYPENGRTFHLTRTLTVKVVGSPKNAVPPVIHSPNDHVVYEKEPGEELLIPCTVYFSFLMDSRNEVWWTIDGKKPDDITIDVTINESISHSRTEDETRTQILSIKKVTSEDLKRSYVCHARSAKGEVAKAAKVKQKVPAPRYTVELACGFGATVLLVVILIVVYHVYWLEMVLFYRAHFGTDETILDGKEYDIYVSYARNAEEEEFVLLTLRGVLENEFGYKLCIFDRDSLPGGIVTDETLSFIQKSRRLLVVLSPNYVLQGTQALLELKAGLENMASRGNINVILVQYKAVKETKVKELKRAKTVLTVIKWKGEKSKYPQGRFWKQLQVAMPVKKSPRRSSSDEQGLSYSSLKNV

T2: recombinant human IL1RAP protein, extracellular domain His-tagged (Sino Biological, Cat #10121-H08H) (human, UniProt Q9NPH3 21-367)
T2 construct: extracellular domain; Bought protein; The Octet analyte is printed as huIL1RAP-His (Sino Biological, lot MB08MA1301) without a catalogue number; also called huIL1RAP-His; hIL1RAP; not shown: His tag
T2 sequence (looked up): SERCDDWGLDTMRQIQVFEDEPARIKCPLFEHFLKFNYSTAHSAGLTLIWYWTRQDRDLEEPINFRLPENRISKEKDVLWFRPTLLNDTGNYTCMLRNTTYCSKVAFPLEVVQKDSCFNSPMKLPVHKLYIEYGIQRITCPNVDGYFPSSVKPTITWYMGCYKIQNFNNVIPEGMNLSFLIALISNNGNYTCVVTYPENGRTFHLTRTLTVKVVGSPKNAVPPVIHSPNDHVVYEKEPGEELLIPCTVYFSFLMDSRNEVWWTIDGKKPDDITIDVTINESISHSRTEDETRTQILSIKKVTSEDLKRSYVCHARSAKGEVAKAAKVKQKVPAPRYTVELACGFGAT

T3: recombinant mouse IL1RAP protein (Sino Biological, Cat #52657-M08H) (mouse, UniProt Q61730 21-359)
T3 construct: Bought protein
T3 sequence (looked up): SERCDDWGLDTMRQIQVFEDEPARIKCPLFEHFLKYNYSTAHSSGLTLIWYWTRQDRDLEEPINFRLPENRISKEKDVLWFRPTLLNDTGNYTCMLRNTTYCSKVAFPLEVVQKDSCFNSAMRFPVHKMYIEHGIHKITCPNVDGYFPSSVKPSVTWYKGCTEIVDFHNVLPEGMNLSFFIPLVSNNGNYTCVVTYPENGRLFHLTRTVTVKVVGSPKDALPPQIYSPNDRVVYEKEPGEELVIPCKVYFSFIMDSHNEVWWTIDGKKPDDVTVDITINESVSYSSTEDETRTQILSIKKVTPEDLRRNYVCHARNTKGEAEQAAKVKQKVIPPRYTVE

T4: cyIL1RAP-His (Lake Pharma) (cynomolgus monkey, UniProt A0A2K5X5J5 21-367)
T4 construct: Bought protein (Lake Pharma, lot 16205819371); also called cynomolgus IL1RAP; monkey IL1RAP; not shown: His tag
T4 sequence: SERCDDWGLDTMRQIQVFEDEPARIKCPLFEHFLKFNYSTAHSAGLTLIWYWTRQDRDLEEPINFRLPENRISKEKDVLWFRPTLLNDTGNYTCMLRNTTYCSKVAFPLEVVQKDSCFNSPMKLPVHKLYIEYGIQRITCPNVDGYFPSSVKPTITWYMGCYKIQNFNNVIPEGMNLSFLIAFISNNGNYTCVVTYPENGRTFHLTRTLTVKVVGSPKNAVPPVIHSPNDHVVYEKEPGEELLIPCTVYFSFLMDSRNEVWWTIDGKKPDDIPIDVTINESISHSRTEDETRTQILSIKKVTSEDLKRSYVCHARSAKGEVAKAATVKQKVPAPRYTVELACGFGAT


Legend:
[1] = biological target: T1, IL1RAP on HEK-Blue IL1β / HEK-Blue IL33 …; assay: cell-based or functional assay
[2] = biological target: T2, recombinant human IL1RAP protein, …; assay: Octet BLI; mAb captured on anti-mouse IgG Fc sensor; huIL1RAP-His analyte
Experimental: (§1) Antibodies were diluted in kinetics buffer (0.1% BSA, 0.02% Tween-20 and 0.05% NaN₃ in PBS) and loaded onto 16 channel anti-mouse IgG Fc capture sensors (AMC, Cat #2001073; Sartorius, Göttingen, Germany). Human, huIL1RAP-His (Sino Biological, lot: MB08MA1301), and monkey, cyIL1RAP-His (Lake Pharma, NY, USA; lot:16205819371) proteins were titrated starting from the highest concentration of 100 nM and followed by 50 nM and 25 nM. Purified antibodies were loaded at 5 μg/ml in kinetics buffer. The experimental parameters selected to determine the kinetic constants were Baseline for 60 s, Loading of antibody to sensor for 180 s, Association of analyte to antibody for 120 s, Dissociation for 1200 s and Regeneration in 10 mM Glycine pH 1.7 for 4×30 s.
(§2) Regeneration cycle tracking was selected for 12 cycles. Binding to human and cynomolgus IL1RAP was measured and KD (M) kinetics were calculated. Also, the disassociation rate (Kdis) (1/s) and association rate (Kon) (1/Ms) kinetics were calculated (data not shown).

[3] = biological target: T1, IL1RAP on HEK-Blue IL1β / HEK-Blue IL33 …; assay: cell-based or functional assay; remark: listed apart in the source
[4] = biological target: T3, recombinant mouse IL1RAP protein (Sino …); assay: cell-free ELISA, mouse IL1RAP coated; data not shown
Experimental: Recombinant human or mouse IL1RAP proteins (Sino Biological, Beijing, China; Cat #10121-H08H and Sino Biological, Cat #52657-M08H respectively) were diluted in PBS, pH 7.4 at concentration of 1 μg/ml, coated on high-binding 384-well clear plates and incubated overnight at 4° C. Following, plates were washed 3× with 0.05% Tween-20 in PBS, pH 7.5 and then blocked with 1% BSA in PBS for 1 hour at room temperature. After 3× washes, wells were incubated with each antibody at the highest concentration of 100 nM followed by seven serial half log dilutions (in 1% BSA and 0.05% Tween-20 in PBS) for 1 hour at room temperature. Plates were then washed 3× and incubated with […] detection antibody (Medna, TX, USA; Cat #D8212, 0.5 μg/ml diluted in 0.02% Tween-20 in PBS). After 5× washes, Supersignal ELISA Pico substrate (Thermofisher, MA, USA; Cat #37069) was applied to wells and chemiluminescent signal was read on Sprectramax L for 200 ms/well. Similarly, detection with specific κ and λ antibodies was conducted to define light chain isotyping.

[5] = biological target: T4, cyIL1RAP-His (Lake Pharma); assay: Octet BLI; mAb captured on anti-mouse IgG Fc sensor; cyIL1RAP-His analyte
Experimental: as §1, §2

IC50, HEK-BlueIL33 NFκB Reporter Assay [1]	Max % Inhibition at 200 nM, HEK-BlueIL33 NFκB Reporter Assay [1]	Kd [2]	Response [2]	koff [2]	kon [2]	IC50, HEK-BlueIL1β NFκB Reporter Assay [3]	Max % Inhibition at 200 nM, HEK-BlueIL1β NFκB Reporter Assay [3]	binding result [4]	Kd [5]	Response [5]	koff [5]	kon [5]	Binder
4.81e-09 M (implied; unit not printed)	93%	1.62 nM	0.17	0.00037 s⁻¹	228000 M⁻¹ s⁻¹	1.73e-09 M (implied; unit not printed)	99%	no binding (tested: 100 nM)	4.32 nM	0.168	0.000954 s⁻¹	221000 M⁻¹ s⁻¹	STLX2018 (antibody, V domains shown, Purified from hybridoma of immunized Alivamab mice; intact IgG; captured on anti-mouse IgG Fc sensors in Octet; kappa light chain; also called 74804_18L05A) VH: QVQLVQSGAEVKKPGASVKVSCKTSGYTFTSCCMHWVRQAPGQGLEWMGIINPSVGSTSYAQKFQGIVTMTRDTSTSTVYMELSSLRSEDTAVYYCAVDSSGSRYYYGMDVWGQGTTVTVSS VL: EIVMTQSPATLSVSPGERATLSCRASQSVRSNLAWYQQRPGQAPRLLIYGTSTRATGIPARFSGSGSGTEFTLTISSLQSEDFAVYYCQQYNYWPYTFGQGTKLEIK
4.82e-09 M (implied; unit not printed)	80%	0.83 nM	0.17	0.000348 s⁻¹	420000 M⁻¹ s⁻¹	8.19e-10 M (implied; unit not printed)	101%	no binding (tested: 100 nM)	0.739 nM	0.192	0.000259 s⁻¹	351000 M⁻¹ s⁻¹	STLX2017 (antibody, V domains shown, Purified from hybridoma of immunized Alivamab mice; intact IgG; captured on anti-mouse IgG Fc sensors in Octet; kappa light chain; also called 74804_17E20A) VH: EVQLVQSGAEVKKPGESLKISCKGSGYSFTSYWIGWVRQMPGKGLEWMGIIWPGDSDTRYSPSFQGQVTISADKSVNTAYLQWISLKASDTAIYYCARSSGGTAMDVWGQGTTVTVSS VL: not shown
1.1e-08 M (implied; unit not printed)	74%	1.64 nM	0.205	0.000272 s⁻¹	166000 M⁻¹ s⁻¹	2e-09 M (implied; unit not printed)	99%	no binding (tested: 100 nM)	2.87 nM	0.219	0.000408 s⁻¹	142000 M⁻¹ s⁻¹	STLX2009 (antibody, V domains shown, Purified from hybridoma of immunized Alivamab mice; intact IgG; captured on anti-mouse IgG Fc sensors in Octet; kappa light chain; also called 74804_09H05A) VH: QVQLFQSGAEVKKPGASVKVSCKASGYTFTGYYVHWVRQAPGQGLEWMGWINPNSGGTDYAQKFQGRVTMTWDTSISTAYMELSRLRSDDTAVYYCARSYYYYGMDVWGQGTTVTVSS VL: not shown
